From patent publication EP0977036A1, “METHOD FOR ASSAYING AGALACTO-IgG AND ASSAY KITS, PO[…] LECTINS, AND DNAS ENCODING THE SAME” (SEIKAGAKU CORPORATION, priority 1996, dated 1998) come the findings set out here.

This assay concerns the target agalacto-IgG (human IgG treated with streptococcal beta-galactosidase and sialidase, Preparation Example 1). As to the kind of experiment: sandwich ELISA of Example 3, agalacto-IgG 2.5 µg/ml, competitor GlcNAc 50 mM (a monosaccharide).

As for “Psathyrella velutina lectin (PVL), purified from Psathyrella velutina fruiting body”, the percent inhibition in the presence of 50 mM GlcNAc was 50%.
